{"source": "paper PMC4016011", "origin": "cited, not measured here", "target": "neuronal nitric oxide synthase PDZ (UniProt P29475)", "sequence (P29475 17-99)": "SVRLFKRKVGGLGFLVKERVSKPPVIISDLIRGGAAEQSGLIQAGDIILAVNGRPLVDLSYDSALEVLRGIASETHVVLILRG", "data": [{"substance": "syntrophin PDZ (from UniProt Q13424)", "values": [{"measurement": "Kd", "result": 600, "unit": "nM"}]}]}
